Assay results taken from US20250043302A1, “MUTATED HYDROXYPHENYLPYRUVATE DIOXYGENASE POLYPEPTIDE, AND CODING GENE AND USE THEREOF” (BEIJING DABEINONG BIOTECHNOLOGY CO., LTD., priority 2021, published 2025).

Key:
Format in all cases: in vivo
[1] = system: Arabidopsis thaliana T1 plants; experiment: Mesotrione tolerance of transgenic Arabidopsis thaliana T1 plants (spray, bleached leaf area grade, damage score); parameters: Scores: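 damage score 0-100 computed as Σ(N×S)/(T×M)×100 over grades 0-3 with higher meaning more damage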; conditions: Table 12; for Classification and statistics of the grade of pesticide damage Grade 0: number of plants at grade 0; for Classification and statistics of the grade of pesticide damage Grade 1: number of plants at grade 1; for Classification and statistics of the grade of pesticide damage Grade 2: number of plants at grade 2; for Classification and statistics of the grade of pesticide damage Grade 3: number of plants at grade 3; for Scores: pesticide damage score
Summary of the method: (§1)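 Damage graded 0–3 from the proportion of bleached leaf area 7 days after spraying. Plants were glufosinate-selected T1 lines, 18 days after sowing, plus vector and wild-type controls. Rates: mesotrione 52.5–420, isoxaflutole 35–280, topramezone 25–200 g ai/ha, with water (0×).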

[2] = system: Arabidopsis thaliana T1 plants; experiment: Topramezone tolerance of transgenic Arabidopsis thaliana T1 plants (spray, bleached leaf area grade, damage score); conditions: Table 10; for Classification and statistics of the grade of pesticide damage Grade 0: number of plants at grade 0; for Classification and statistics of the grade of pesticide damage Grade 1: number of plants at grade 1; for Classification and statistics of the grade of pesticide damage Grade 2: number of plants at grade 2; for Classification and statistics of the grade of pesticide damage Grade 3: number of plants at grade 3; for Scores: pesticide damage score
Summary of the method: as §1

[3] = system: Arabidopsis thaliana T1 plants; experiment: Isoxaflutole tolerance of transgenic Arabidopsis thaliana T1 plants (spray, bleached leaf area grade, damage score); conditions: Table 11; for Classification and statistics of the grade of pesticide damage Grade 0: number of plants at grade 0; for Classification and statistics of the grade of pesticide damage Grade 1: number of plants at grade 1; for Classification and statistics of the grade of pesticide damage Grade 2: number of plants at grade 2; for Classification and statistics of the grade of pesticide damage Grade 3: number of plants at grade 3; for Scores: pesticide damage score;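 as to Scores: Weighted damage index from 0 to 100 where higher means more damage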
Summary of the method: as §1

Molecule | Resistance evaluation ([1]; mesotrione 210 g ai/ha (2×)) | Classification and statistics of the grade of pesticide damage Grade 0 ([1]; mesotrione 210 g ai/ha (2×)) | Classification and statistics of the grade of pesticide damage Grade 1 ([1]; mesotrione 210 g ai/ha (2×)) | Classification and statistics of the grade of pesticide damage Grade 2 ([1]; mesotrione 210 g ai/ha (2×)) | Classification and statistics of the grade of pesticide damage Grade 3 ([1]; mesotrione 210 g ai/ha (2×)) | Scores ([1]; mesotrione 210 g ai/ha (2×)) | Resistance evaluation ([1]; mesotrione 420 g ai/ha (4×)) | Classification and statistics of the grade of pesticide damage Grade 0 ([1]; mesotrione 420 g ai/ha (4×)) | Classification and statistics of the grade of pesticide damage Grade 1 ([1]; mesotrione 420 g ai/ha (4×)) | Classification and statistics of the grade of pesticide damage Grade 2 ([1]; mesotrione 420 g ai/ha (4×)) | Classification and statistics of the grade of pesticide damage Grade 3 ([1]; mesotrione 420 g ai/ha (4×)) | Scores ([1]; mesotrione 420 g ai/ha (4×)) | Resistance evaluation ([2]; topramezone 100 g ai/ha (4×)) | Classification and statistics of the grade of pesticide damage Grade 0 ([2]; topramezone 100 g ai/ha (4×)) | Classification and statistics of the grade of pesticide damage Grade 1 ([2]; topramezone 100 g ai/ha (4×)) | Classification and statistics of the grade of pesticide damage Grade 2 ([2]; topramezone 100 g ai/ha (4×)) | Classification and statistics of the grade of pesticide damage Grade 3 ([2]; topramezone 100 g ai/ha (4×)) | Scores ([2]; topramezone 100 g ai/ha (4×)) | Resistance evaluation ([2]; topramezone 200 g ai/ha (8×)) | Classification and statistics of the grade of pesticide damage Grade 0 ([2]; topramezone 200 g ai/ha (8×)) | other results
HPPDm-1-02: nucleotide sequence encoding Avena sativa HPPD with A107 deletion+F372A+F383W; vector DBN11780 (nucleic acid, HPPDm-1-02 Nucleotide Sequence, vector DBN11780) DNA: ATGCCACCTACTCCAGCTACAGCTACTGGTGCTGCTGCTGCTGCCGTTACTCCTGAGCACGCTGCCAGGTCATTCCCCAGGGTGGTTCGCGTGAACCCCAGATCTGATAGGTTCCCAGTTCTGAGCTTCCACCATGTTGAGCTGTGGTGCGCTGATGCTGCTTCTGCTGCTGGCAGGTTCTCTTTCGCTCTTGGTGCTCCACTCGCTGCTAGATCTGATCTGTCTACAGGAAATAGCGCTCATGCCTCACTCCTGCTTCGCTCAGGTGCTTTGGCCTTCCTCTTCACCGCTCCATATGCTCCCCCACCTCAGGAGGCTACTGCTGCTGCTACAGCCTCCATTCCAAGCTTCTCAGCTGATGCCGCTAGAACCTTCGCTGCTGCTCATGGACTTGCCGTGAGGTCTGTTGGTGTTCGCGTGGCTGATGCTGCTGAGGCTTTCAGAGTTTCCGTTGCCGGCGGAGCTAGGCCAGCTTTCGCTCCTGCTGATTTGGGACATGGTTTCGGCCTGGCTGAGGTTGAGCTTTACGGTGACGTGGTTCTCCGCTTCGTGTCTTACCCAGATGAGACTGACCTGCCTTTCCTTCCCGGCTTCGAGAGAGTTTCCTCTCCTGGTGCCGTGGATTACGGCCTGACAAGGTTCGACCACGTGGTTGGAAACGTTCCCGAGATGGCTCCAGTGATCGATTACATGAAGGGCTTCCTTGGATTCCATGAGTTCGCCGAGTTCACTGCTGAGGACGTGGGAACCACTGAGTCCGGTTTGAACTCTGTGGTTCTCGCCAACAATTCTGAGGCTGTTTTGCTCCCTCTGAATGAGCCTGTGCATGGAACCAAGAGGAGAAGCCAGATTCAAACTTACCTGGAGTACCACGGTGGCCCTGGAGTTCAGCATATCGCCCTTGCTTCTAATGATGTGTTGCGCACACTCAGAGAGATGCGCGCCAGAACCCCCATGGGAGGTTTCGAGTTCATGGCCCCACCACAGGCTAAGTACTACGAGGGCGTTAGAAGGATTGCTGGAGACGTGTTGAGCGAGGAGCAGATCAAGGAGTGCCAAGAGCTGGGTGTTCTTGTGGATAGGGATGACCAGGGCGTTCTGCTTCAAATTGCCACTAAGCCAGTGGGCGACCGCCCTACATTCTGGCTTGAGATGATTCAAAGAATCGGCTGCATGGAGAAGGATGAGGTTGGACAGGAGTACCAAAAGGGCGGATGCGGTGGCTTCGGAAAGGGTAACTTCAGCGAGTTGTTCAAGTCAATCGAGGACTACGAGAAGAGCCTCGAGGTGAAGCAGTCAGTGGTTGCCCAAAAGTCCTGA | Highly resistant | 16 | 0 | 0 | 0 | 0 | Highly resistant | 15 | 1 | 0 | 0 | 2 | Highly resistant | 16 | 0 | 0 | 0 | 0 | Highly resistant | 16 | Classification and statistics of the grade of pesticide damage Grade 1 ([2]; topramezone 200 g ai/ha (8×)): 0; Classification and statistics of the grade of pesticide damage Grade 2 ([2]; topramezone 200 g ai/ha (8×)): 0; Classification and statistics of the grade of pesticide damage Grade 3 ([2]; topramezone 200 g ai/ha (8×)): 0; Scores ([2]; topramezone 200 g ai/ha (8×)): 0; Resistance evaluation ([3]; isoxaflutole 140 g ai/ha (2×)): Highly resistant; Classification and statistics of the grade of pesticide damage Grade 0 ([3]; isoxaflutole 140 g ai/ha (2×)): 16; Classification and statistics of the grade of pesticide damage Grade 1 ([3]; isoxaflutole 140 g ai/ha (2×)): 0; Classification and statistics of the grade of pesticide damage Grade 2 ([3]; isoxaflutole 140 g ai/ha (2×)): 0; Classification and statistics of the grade of pesticide damage Grade 3 ([3]; isoxaflutole 140 g ai/ha (2×)): 0; Scores ([3]; isoxaflutole 140 g ai/ha (2×)): 0; Resistance evaluation ([3]; isoxaflutole 280 g ai/ha (4×)): Highly resistant; Classification and statistics of the grade of pesticide damage Grade 0 ([3]; isoxaflutole 280 g ai/ha (4×)): 12; Classification and statistics of the grade of pesticide damage Grade 1 ([3]; isoxaflutole 280 g ai/ha (4×)): 4; Classification and statistics of the grade of pesticide damage Grade 2 ([3]; isoxaflutole 280 g ai/ha (4×)): 0; Classification and statistics of the grade of pesticide damage Grade 3 ([3]; isoxaflutole 280 g ai/ha (4×)): 0; Scores ([3]; isoxaflutole 280 g ai/ha (4×)): 8
HPPDm-2-02: nucleotide sequence encoding Avena sativa HPPD with A111T+F372A+F383W; vector DBN11783 (nucleic acid, HPPDm-2-02 Nucleotide Sequence, vector DBN11783) DNA: ATGCCACCTACTCCAGCTACAGCTACTGGTGCTGCTGCTGCTGCCGTTACTCCTGAGCACGCTGCCAGGTCATTCCCCAGGGTGGTTCGCGTGAACCCCAGATCTGATAGGTTCCCAGTTCTGAGCTTCCACCATGTTGAGCTGTGGTGCGCTGATGCTGCTTCTGCTGCTGGCAGGTTCTCTTTCGCTCTTGGTGCTCCACTCGCTGCTAGATCTGATCTGTCTACAGGAAATAGCGCTCATGCCTCACTCCTGCTTCGCTCAGGTGCTTTGGCCTTCCTCTTCACCGCTCCATATGCTCCCCCACCTCAGGAGGCTGCTACTGCTGCTACTACAGCCTCCATTCCAAGCTTCTCAGCTGATGCCGCTAGAACCTTCGCTGCTGCTCATGGACTTGCCGTGAGGTCTGTTGGTGTTCGCGTGGCTGATGCTGCTGAGGCTTTCAGAGTTTCCGTTGCCGGCGGAGCTAGGCCAGCTTTCGCTCCTGCTGATTTGGGACATGGTTTCGGCCTGGCTGAGGTTGAGCTTTACGGTGACGTGGTTCTCCGCTTCGTGTCTTACCCAGATGAGACTGACCTGCCTTTCCTTCCCGGCTTCGAGAGAGTTTCCTCTCCTGGTGCCGTGGATTACGGCCTGACAAGGTTCGACCACGTGGTTGGAAACGTTCCCGAGATGGCTCCAGTGATCGATTACATGAAGGGCTTCCTTGGATTCCATGAGTTCGCCGAGTTCACTGCTGAGGACGTGGGAACCACTGAGTCCGGTTTGAACTCTGTGGTTCTCGCCAACAATTCTGAGGCTGTTTTGCTCCCTCTGAATGAGCCTGTGCATGGAACCAAGAGGAGAAGCCAGATTCAAACTTACCTGGAGTACCACGGTGGCCCTGGAGTTCAGCATATCGCCCTTGCTTCTAATGATGTGTTGCGCACACTCAGAGAGATGCGCGCCAGAACCCCCATGGGAGGTTTCGAGTTCATGGCCCCACCACAGGCTAAGTACTACGAGGGCGTTAGAAGGATTGCTGGAGACGTGTTGAGCGAGGAGCAGATCAAGGAGTGCCAAGAGCTGGGTGTTCTTGTGGATAGGGATGACCAGGGCGTTCTGCTTCAAATTGCCACTAAGCCAGTGGGCGACCGCCCTACATTCTGGCTTGAGATGATTCAAAGAATCGGCTGCATGGAGAAGGATGAGGTTGGACAGGAGTACCAAAAGGGCGGATGCGGTGGCTTCGGAAAGGGTAACTTCAGCGAGTTGTTCAAGTCAATCGAGGACTACGAGAAGAGCCTCGAGGTGAAGCAGTCAGTGGTTGCCCAAAAGTCCTGA | Highly resistant | 16 | 0 | 0 | 0 | 0 | Highly resistant | 14 | 2 | 0 | 0 | 4 | Highly resistant | 16 | 0 | 0 | 0 | 0 | Highly resistant | 16 | Classification and statistics of the grade of pesticide damage Grade 1 ([2]; topramezone 200 g ai/ha (8×)): 0; Classification and statistics of the grade of pesticide damage Grade 2 ([2]; topramezone 200 g ai/ha (8×)): 0; Classification and statistics of the grade of pesticide damage Grade 3 ([2]; topramezone 200 g ai/ha (8×)): 0; Scores ([2]; topramezone 200 g ai/ha (8×)): 0; Resistance evaluation ([3]; isoxaflutole 140 g ai/ha (2×)): Highly resistant; Classification and statistics of the grade of pesticide damage Grade 0 ([3]; isoxaflutole 140 g ai/ha (2×)): 16; Classification and statistics of the grade of pesticide damage Grade 1 ([3]; isoxaflutole 140 g ai/ha (2×)): 0; Classification and statistics of the grade of pesticide damage Grade 2 ([3]; isoxaflutole 140 g ai/ha (2×)): 0; Classification and statistics of the grade of pesticide damage Grade 3 ([3]; isoxaflutole 140 g ai/ha (2×)): 0; Scores ([3]; isoxaflutole 140 g ai/ha (2×)): 0; Resistance evaluation ([3]; isoxaflutole 280 g ai/ha (4×)): Highly resistant; Classification and statistics of the grade of pesticide damage Grade 0 ([3]; isoxaflutole 280 g ai/ha (4×)): 12; Classification and statistics of the grade of pesticide damage Grade 1 ([3]; isoxaflutole 280 g ai/ha (4×)): 3; Classification and statistics of the grade of pesticide damage Grade 2 ([3]; isoxaflutole 280 g ai/ha (4×)): 1; Classification and statistics of the grade of pesticide damage Grade 3 ([3]; isoxaflutole 280 g ai/ha (4×)): 0; Scores ([3]; isoxaflutole 280 g ai/ha (4×)): 10
